Target: T1, Rat Robo1 tagged with the hemagglutinin (Robo1-HA) (rat, UniProt O55005 26-1651)
T1 construct: Roundabout homolog 1 (Robo1), rat; The sentence with the Kd calls it Robo2, the methods name only rat Robo1-HA; also called Robo-HA; HA-Robo; source: HEK293, transfected
Experiment: binding of alkaline phosphatase-tagged ligand to transfected cells; HEK293 cells transfected with FL APP or HA-Robo incubated with serial dilutions of supernatants with AP-tagged Slit2 and 1 μg/ml heparin, 2 h at 37°C; AP activity in cell lysates; Hill equation, Scatchard plot
Conditions: partners not purified

T1 sequence (O55005 26-1651): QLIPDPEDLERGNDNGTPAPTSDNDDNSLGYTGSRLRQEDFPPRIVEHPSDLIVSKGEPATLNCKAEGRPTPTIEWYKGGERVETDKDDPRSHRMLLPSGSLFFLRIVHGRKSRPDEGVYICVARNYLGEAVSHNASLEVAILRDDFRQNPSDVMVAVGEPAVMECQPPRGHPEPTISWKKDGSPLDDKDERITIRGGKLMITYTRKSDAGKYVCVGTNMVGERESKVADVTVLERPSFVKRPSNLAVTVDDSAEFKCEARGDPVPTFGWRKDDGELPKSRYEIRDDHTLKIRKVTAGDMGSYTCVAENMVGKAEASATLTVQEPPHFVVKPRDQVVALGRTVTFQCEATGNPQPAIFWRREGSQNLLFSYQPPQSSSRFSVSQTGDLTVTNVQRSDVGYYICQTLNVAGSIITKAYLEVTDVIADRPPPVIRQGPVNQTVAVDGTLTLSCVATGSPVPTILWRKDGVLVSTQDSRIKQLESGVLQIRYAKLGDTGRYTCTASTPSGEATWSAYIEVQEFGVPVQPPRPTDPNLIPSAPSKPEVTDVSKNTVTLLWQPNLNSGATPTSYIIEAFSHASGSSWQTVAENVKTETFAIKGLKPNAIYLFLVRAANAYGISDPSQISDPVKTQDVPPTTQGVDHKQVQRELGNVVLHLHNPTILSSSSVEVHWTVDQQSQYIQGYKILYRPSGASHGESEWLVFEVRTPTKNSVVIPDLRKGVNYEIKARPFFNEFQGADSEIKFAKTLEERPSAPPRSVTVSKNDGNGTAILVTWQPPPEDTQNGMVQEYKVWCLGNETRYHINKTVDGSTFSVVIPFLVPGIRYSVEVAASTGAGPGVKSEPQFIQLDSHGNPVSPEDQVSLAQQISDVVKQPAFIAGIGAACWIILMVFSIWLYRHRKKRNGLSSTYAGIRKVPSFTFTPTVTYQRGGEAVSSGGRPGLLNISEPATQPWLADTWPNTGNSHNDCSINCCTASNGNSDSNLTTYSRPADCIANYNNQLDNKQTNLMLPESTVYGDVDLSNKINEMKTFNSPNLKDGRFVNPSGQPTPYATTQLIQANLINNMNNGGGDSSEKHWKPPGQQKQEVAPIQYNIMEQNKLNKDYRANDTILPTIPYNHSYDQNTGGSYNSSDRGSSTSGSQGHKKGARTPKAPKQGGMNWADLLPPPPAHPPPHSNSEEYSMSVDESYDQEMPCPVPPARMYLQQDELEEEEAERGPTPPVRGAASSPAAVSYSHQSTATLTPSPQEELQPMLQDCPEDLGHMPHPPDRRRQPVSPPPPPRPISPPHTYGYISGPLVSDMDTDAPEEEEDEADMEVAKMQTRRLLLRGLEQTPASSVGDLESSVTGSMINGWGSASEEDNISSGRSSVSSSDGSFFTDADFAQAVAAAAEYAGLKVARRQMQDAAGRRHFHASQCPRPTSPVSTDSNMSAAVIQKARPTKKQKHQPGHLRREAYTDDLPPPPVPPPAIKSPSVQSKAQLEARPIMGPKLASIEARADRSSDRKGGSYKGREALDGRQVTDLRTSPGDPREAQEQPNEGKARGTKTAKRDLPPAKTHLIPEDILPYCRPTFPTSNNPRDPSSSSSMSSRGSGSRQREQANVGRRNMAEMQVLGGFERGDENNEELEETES

B1: FL Slit2 fused N terminally to the human alkaline phosphatase sequence (ligand, UniProt O94813 31-1529, looked up)
chain: QCSCSGSTVDCHGLALRSVPRNIPRNTERLDLNGNNITRITKTDFAGLRHLRVLQLMENKISTIERGAFQDLKELERLRLNRNHLQLFPELLFLGTAKLYRLDLSENQIQAIPRKAFRGAVDIKNLQLDYNQISCIEDGAFRALRDLEVLTLNNNNITRLSVASFNHMPKLRTFRLHSNNLYCDCHLAWLSDWLRQRPRVGLYTQCMGPSHLRGHNVAEVQKREFVCSGHQSFMAPSCSVLHCPAACTCSNNIVDCRGKGLTEIPTNLPETITEIRLEQNTIKVIPPGAFSPYKKLRRIDLSNNQISELAPDAFQGLRSLNSLVLYGNKITELPKSLFEGLFSLQLLLLNANKINCLRVDAFQDLHNLNLLSLYDNKLQTIAKGTFSPLRAIQTMHLAQNPFICDCHLKWLADYLHTNPIETSGARCTSPRRLANKRIGQIKSKKFRCSAKEQYFIPGTEDYRSKLSGDCFADLACPEKCRCEGTTVDCSNQKLNKIPEHIPQYTAELRLNNNEFTVLEATGIFKKLPQLRKINFSNNKITDIEEGAFEGASGVNEILLTSNRLENVQHKMFKGLESLKTLMLRSNRITCVGNDSFIGLSSVRLLSLYDNQITTVAPGAFDTLHSLSTLNLLANPFNCNCYLAWLGEWLRKKRIVTGNPRCQKPYFLKEIPIQDVAIQDFTCDDGNDDNSCSPLSRCPTECTCLDTVVRCSNKGLKVLPKGIPRDVTELYLDGNQFTLVPKELSNYKHLTLIDLSNNRISTLSNQSFSNMTQLLTLILSYNRLRCIPPRTFDGLKSLRLLSLHGNDISVVPEGAFNDLSALSHLAIGANPLYCDCNMQWLSDWVKSEYKEPGIARCAGPGEMADKLLLTTPSKKFTCQGPVDVNILAKCNPCLSNPCKNDGTCNSDPVDFYRCTCPYGFKGQDCDVPIHACISNPCKHGGTCHLKEGEEDGFWCICADGFEGENCEVNVDDCEDNDCENNSTCVDGINNYTCLCPPEYTGELCEEKLDFCAQDLNPCQHDSKCILTPKGFKCDCTPGYVGEHCDIDFDDCQDNKCKNGAHCTDAVNGYTCICPEGYSGLFCEFSPPMVLPRTSPCDNFDCQNGAQCIVRINEPICQCLPGYQGEKCEKLVSVNFINKESYLQIPSAKVRPQTNITLQIATDEDSGILLYKGDKDHIAVELYRGRVRASYDTGSHPASAIYSVETINDGNFHIVELLALDQSLSLSVDGGNPKIITNLSKQSTLNFDSPLYVGGMPGKSNVASLRQAPGQNGTSFHGCIRNLYINSELQDFQKVPMQTGILPGCEPCHKKVCAHGTCQPSSQAGFTCECQEGWMGPLCDQRTNDPCLGNKCVHGTCLPINAFSYSCKCLEGHGGVLCDEEEDLFNPCQAIKCKHGKCRLSGLGQPYCECSSGYTGDSCDREISCRGERIRDYYQKQQGYAACQTTKKVSRLECRGGCAGGQCCGPLRSKRRKYSFECTDGSSFVDEVEKVVKCGCTRCVS
notes: Slit2, full length, put in place of Netrin 5 in the vector Ntn5.a-AP-His (Addgene); also called AP-tagged Slit2; alkaline phosphatase (AP)-tagged Slit2; source: HEK293T, transfected, in supernatant; not shown: alkaline phosphatase (human), C-terminal, kept
Kd: 19.6 nM
